The record followed here is a protein production outcome set (Wang et al. 2014).

The data set in a line: label from the status in PepcDB records.
On to “MPKLSVIVPTFNRQVLLEKAIKSIQNQDFKDLEIIVSDDNSSDDTKSVVQNLQKDDDRIKYFLNQNYKQGPNGNKNNGLDQASGEFVTFLDDDDELLSGALSTLMQKANEGYAHVFGNCLIEKEGNLSKEFSGKGLEKDSEISKKDFLMAKFSGEFFSVFKKSLLENKRFNEEFYGNEATLWVNLYKEKSFYIHKAFRIYRIFRQDSVTLGASKNAYRVYLGYLELAKILENELRMSKDKDYKKTCASYYKMAAYYAKLAKNYKALYKCLFKSLSIKINAPALILLILSIIPNNMIEKLSKIRVALCKN”, for which the protein production entry is on record as “failed”.

“MPKTKLTSPPFKILKCTECDACINVPSILQSNEQAECPRCHHLLASGTRWSLHRCAMIALSILILMPFSLNYPLLSLHLLGIKIDASIWDGIWKMAVGGYEYTAFMIFICAVVMPITFALLVIMLWLAKIFQIKPRSVLLFLGYIKAWVMFDVYLVALGVTIFKVREYATLEINIYLIPFIFTALLTTLLFIKLNLSALWQEFYPECTSVYTKQAVELCPACHYTFTQKSIHYDHQQKICCPRCQSPLNTSDKLKLQATWATLIAGIIMLFPANLLPISGIYLTGALSEDTLISGVISFVKSGSYFVAFVVFFASIFVPISKIFIMLYLLACVHFKWQHSIKWQMRLLHLVHFVGRWSMLDLFVLALMMSLVTRGEIINFTVGPGAFYFGAAVFCTMLSTSQFDSKLIWKIYDREK”: the protein production entry is “failed”.

As for “MPKVNLYATFRDLTGKSQLELPGATVGEVLENLVRAYPALKEELFEGEGLAERVSVFLEGRDVRYLQGLSTPLSPGATLDLFPPVAGGGFERTFGAFPPWLLERYLEEWGGTREGEGVYRLPGAVVRFREVEPLKVGSLSIPQLRVEVEGEEAERWFERIAFAASRGGG”, the protein production entry is given as “not failed”.

Turning to “MPLDAPPLLPSADSDSTVSILQAKGDAPPAAATAAVGWPLLALTTWFGSGLIPLAPGTMGSIAALPFAWAIAWTWGPWALAPAAALVFVIGTLAAEAHVRRSGEKDPQRIVIDEVAGQWLTLAVAPLDPLAYGVGLVLFRICDITKPWPACWADRSVPGGFGIMLDDGFAAVYSTCMMALYVHYFM”, the protein production entry is “failed”.

In the case of “MPLDRDWIAQRIPHAGAMCLLDRVLTWDAGRLRCVAVSHLSPGNPLRAGGRLSVVCGIEYAAQATAVHGALRSAGEGEAPRSGFLVSVRDVEFHVRRLDTLDGDLVVEVECLTGDGNDALYRFRLLAADGRELLTGRLAVRLDAEAGLEHHHHHH”, the protein production result was “not failed”.

As for “MPLITTETGKKMHVLEDGRKLITVIPGDGIGPECVEATLKVLEAAKAPLAYEVREAGASVFRRGIASGVPQETIESIRKTRVVLKGPLETPVGYGEKSANVTLRKLFETYANVRPVREFPNVPTPYAGRGIDLVVVRENVEDLYAGIEHMQTPSVAQTLKLISWKGSEKIVRFAFELARAEGRKKVHCATKSNIMKLAEGTLKRAFEQVAQEYPDIEAVHIIVDNAAHQLVKRPEQFEVIVTTNMNGDILSDLTSGLIGGLGFAPSANIGNEVAIFEAVHGSAPKYAGKNVINPTAVLLSAVMMLRYLEEFATADLIENALLYTLEEGRVLTGDVVGYDRGAKTTEYTEAIIQNLGKTPRKTQVRGYKPFRLPQVDGAIAPIVPRSRRVVGVDVFVETNLLPEALGKALEDLAAGTPFRLKMISNRGTQVYPPTGGLTDLVDHYRCRFLYTGEGEAKDPEILDLVSRVASRFRWMHLEKLQEFDGEPGFTKAQGED”, the protein production result is reported as “not failed”.

Regarding “MPLLIITTILWAFSFSLIGEYLAGQVDSWFSAMFRLTAAAVVFLPFLRWRGYAPRVIFLYMLVGACQLGIMYLFVFQAYLYLTVPEFLLFTVMTPLYVTLIYDLLARHRLRWGYVMSALLAVFGAAVIHYHGVSEHFWWGFLLVQVANVCFASGQVGYKRLMEIHPVPQHCAFSWFYLGAAIVTIAAWLLFGNMDKLPTTTLQWGVLAWLGIGASGVGYFMWNYGATQVDAGTLSIMNNFHVPAGLLVNFAIWHKTPDWLSFIVGTAIITSSLWVHQHWVVKRPLRTANDHKRADAQNE”, the protein production entry is “failed”.

With “MPLLPHNRTALGFLLRHLIAGLTGGLVFGGLILALDISGLRSMLMASQDGLLYTLLLFFGLSVTFGGVAMGVGVMSLGEDKN”, the protein production entry is reported as “failed”.

As to “MPLRLDIKRKLTAMSDRVKSVDLHPTEPWMLASLYNGSVCVWNHETQTLVKTFEVCDLPVRAAKFVARKNWVVTGADDMQIRVFNYNTLERVHMFEAHSDYIRCIAVHPTQPFILTSSDDMLIKLWDWDKKWSCSQVFEGHTHYVMQIVINPKDNNQFASASLDRTIKVWQLGSSSPNFTLEGHEKGVNCIDYYSGGDKPYLISGADDRLVKIWDYQNKTCVQTPEGHAQNVSCATFHPELPIIITGSEDGTVRIWHSSTYRLESTLNYGMERVWCVASLRGSNNVALGYDEGSIIVKLGREEPAMSMDANGKIIWAKHSEVQQANLKAMGDTEIKDGERLPLAVKDMGSCEIYPQTIQHNPNGRFVVVCGDGEYIIYTAMALRNKSFGSAQEFAWAHDSSEYAIRESNSVVKIFKNFKEKKSFKPDFGAESIYGGFLLGVRSVNGLAFYDWENTELIRRIEIQPKHIFWSDSGELVCIATEESFFILKYLSEKVLAAQETHEGVTEDGIEDAFEVLGEIQEIVKTGLWVGDCFIYTSSVNRLNYYVGGEIVTIAHLDRTMYLLGYIPKDNRLYLGDKELNIVSYSLLVSVLEYQTAVMRRDFSMADKVLPTIPKEQRTRVAHFLEKQGFKQQALTVSTDPEHRFELALQLGELKIAYQLAVEAESEQKWKQLAELAISKCQFSLAQECLHHAQDYGGLLLLATASGNASMVNKLAEGAERDGKNNVAFMSYFLQGKLDACLELLIRTGRLPEAAFLARTYLPSQVSRVVKLWRENLSKVNQKAAESLADPTEYENLFPGLKEAFVVEEWVKETHADLWPAKQYPLVTPNEERNVMEEAKRFQPSRATAQQEPDGKPASSPVIMASQTTHKEEKSFQELEDDLDTMELEDIDTTDINLDEDILDD”, the protein production entry is “failed”.

Consider “MPLVLHHPERQAELGSGLRDGGGAALRPPGRLVKQMDFTEAYADTCSTVGLAAREGNVKVLRKLLKKGRSVDVADNRGWMPIHEAAYHNSVECLQMLINADSSENYIKMKTFEGFCALHLAASQGHWKIVQILLEAGADPNATTLEETTPLFLAVENGQIDVLRLLLQHGANVNGSHSMCGWNSLHQASFQENAEIIKLLLRKGANKECQDDFGITPLFVAAQYGKLESLSILISSGANVNCQALDKATPLFIAAQEGHTKCVELLLSSGADPDLYCNEDSWQLPIHAAAQMGHTKILDLLIPLTNRACDTGLNKVSPVYSAVFGGHEDCLEILLRNGYSPDAQACLVFGFSSPVCMAFQKDCEFFGIVNILLKYGAQINELHLAYCLKYEKFSIFRYFLRKGCSLGPWNHIYEFVNHAIKAQAKYKEWLPHLLVAGFDPLILLCNSWIDSVSIDTLIFTLEFTNWKTLAPAVERMLSARASNAWILQQHIATVPSLTHLCRLEIRSSLKSERLRSDSYISQLPLPRSLHNYLLYEDVLRMYEVPELAAIQDG”, for which the protein production entry is recorded as “failed”.

Turning to “MPMSFSLTQMILISAAYLAVLFGVAWISERGMIPRSIIRHPLTYTLSLGVYASAWAFYGTVGLAYQYGYGFLSSYLGVSGAFLLAPVLLYPILKITRTYQLSSLADLFAFRFRSTWAGALTTIFMLIGVLPLLALQIQAVADSIGILTHEPVQHRVALSFCALITLFTIFFGSRHIATREKHEGLVFAIAFESVIKLIAIGGVGLYALYGVFDGPQQLELWLLQNQTALAALHTPLQEGPWRTLLLVFFASAIVMPHMYHMTFTENLNPRALVSASWGLPLFLLLMSLAVPLILWAGLKLGATTNPEYFTLGIGIAANSPALALLAYVGGLSAASGLIIVTTLALSGMALNHLVLPLYQPPAEGNIYRWLKWTRRALIVAIIMAGYAFYLLLGAEQDLANLGIVAFVATLQFLPGVLSVLYWPTANRRGFIAGLLAGILVWLVTMLLPLIGNLQGFYIPLLNMIYVLDDTSWHMAAIASLAANVLMFTLISLFTNASTEEASAAEACAVDNVRRPQRRELHAASPQEFATQLAKPLGAKAAQKEVEQALRDLYLPFDERRPYALRRLRDRIEANLSGLMGPSVAQDMVETFLPYKAGGENYVTEDIHFIESRLEDYHSRLTGLAAELDALRRYHRQTLQELPMGVCSLAKDQEILMWNKAMEELTGIPAQHVVGSRLSTITNPWKDLLQGFINLPDEHLHKQHLALDGQTRWLNLHKAAIDEPLAPGNSGLVLLVEDLTETQTLEDKLVHSERLASIGRLAAGVAHEIGNPITGIACLAQNLREEREEDGELTEISEQILEQTKRISRIVQSLMSFAHAGSHQHNDEAVCLAEVAQDAIGLLALNRRNFEVQFFNLCDPDHWVDGDPQRLAQVLINLLSNARDASPPGSAVRVKSEAFEHTVDLIVEDEGSGIPKNIMDRLFEPFFTTKDPGEGTGLGLALVYSIVEEHYGQITIDSPADPQSQRGTRIRVTLPRHVEATSAVN”, the protein production result was “failed”.

In the case of “MPMSQSTFTILLGGELSLTERLRDAIEDSRFIAADGGMRHAAALGITPELWVGDFDSTPADLADAFPDVPKQPYPAAKAATDGEIAVAEAIARGARRLILAGALGGERSDHALQHLLSAVSLAEEGFDLLLTSGKEEAVPLVAGTIELDLPKGSLFSVPGFSELRGLAIENARYPLADFHLPFGSSRTISNVAEGKVRFSLRSGRAIVLARPYDLSGV”, the protein production entry is “failed”.

As for “MPMTIKRATWNNGPDLAFDINNKANAAIEKYGREAVINAALGTLLDDKGKIIALPSVYDRLDEMDRSHIASYAPIEGEKDYRKIVIDTLFGPYKPEGYISAIATPGGTGAIRSAIFSYLDEGDPLICHDYYWAPYRKICEEFGRNFKTFEFFTDDFAFNIDVYKEAIDEGIRDSDRIASLINSPGNNPTGYSLSDEEWDEVITFLKEKAEDKDKKITLIVDVAYLEFAGDGDQQRKFFEKFSNLPRNLFVVVAFSMSKSHTAYGLRSGAAVGISSSKEIIEEFEASLAHSARCNWSNGTHAAQNILIELERAENKKIYEQELVDLRNMLKSRADVFVTAAKENKLTMIPYFGGFFTFIPTDKAFDIVKDLEKENIFTIPSAKGIRVAICGVGEEKIPKLVQRLAFYTNKK”, the protein production result is “not failed”.

“MPNCEKEALVVAAAMEKGTIHPIGRYLLPQYWEGPPLCFEYFPGRGLTATVSCIESVTEGNKLRKSSLGSVEFITSLFESQDQSREIKNAVNSSLYGNDFVHALLSLYQKVTLIHLEDQPHQPFYRPISLNLRHVMIKINTFIQFFFRMNQISNHEIGSFSAFATQFFSFLTHYSILPNPINSLNPTLRPLVPCTIHELAPPPAPPPFPSCKSAM”: the protein production result is listed as “failed”.

Turning to “MPPDEIEIEPVRQSSDKMLYCEAESPPTVEKVKPARENSETDLEIEDDEKFFTTGQKELYLEACKLMGVVPVSYFIRNMEESYVNLNHHGLGPRGTKAIAIALVSNMAVTKLELEDNCIMEEGVLSLVEMLQENYYLQEMNISNNHLGLEGARIISDFFERNSSSIWSLELSGNDFKEDSAALLCQALSTNYQIKKLDLSHNQFSDVGGEHLGQMLAINVGLTSLDLSWNNFHTRGAVALCNGLRGNVTLTKLDLSMNGFGNEVALALGEVLRLNRCLVYLDIGGNDIGNEGASKISKGLESNESLRVLKLFLNPINMDGAILLILAIKRNPKSRMEELDISNVLVSEQFMKTLDGVYAVHPQLDVVFKAVQGLSPKKTIFLLTNPMKLIQSYADQHKITIVDFFKSLNPTGTMKMSVDEFQKVMIEQNKVPLNQYQVREVIKKLDEKTGMVNFSFLNTMKP”, the protein production entry was “failed”.

“MPPFMSGLRAVSSLLSCRNAISRKLVSRSGIPRGSFVSDQIRRFGSLSGVERCSSNWLMSNDDARVSFRRLPGSVSLLQRRHFLGCGDGEEGGGELSKIYEERRVLGYTPEQMFNVVAAVDLYHGFVPWCQRSEVLKEYPDGSFDAELEIGFKFLVESYISHVESERPKWIKTTARDTGLFDHLINLWQFKPGPIPGTCDLHFHVDFKFNSPLYRQVASMFFKEVASRLVGAFSDRCRLVYGPGVRVDENAYEQRA”: the protein production result was “failed”.
